Reference: US20250186614A1, “COMPACT DRUG RESPONSIVE DOMAINS FOR REGULATION OF FUNCTION/ABUNDANCE AND DELIVERY OF POLYPEPTIDE PAYLOADS” (OBSIDIAN THERAPEUTICS, INC., priority 2022, published 2025)

Tested on: Jurkat cells
Experiment: Tacrolimus dose response of FKBP13-AcGFP-mCherry constructs stably transduced into Jurkat cells, GFP MFI by flow cytometry
Type: cell-based
Design: Basal: unit not given here
Conditions: for DRD function after abrogating the disulfide bonds: FIG. 4; for basal AcGFP expression: absence of tacrolimus
Description: The regulation of AcGFP, from FKBP13-AcGFP-mCherry constructs, in Jurkat cells, was also studied. Jurkat Clone E6-1 cells were cultured in standard media (RPMI+GlutaMAX Supplement (Life Technologies, Carlsbad, CA Cat #61870127), Fetal Bovine Serum (FBS) (Life Technologies Cat #10-082-147)). Jurkat cells were transduced with lentivirus produced with each of FKBP-039, FKBP-040, FKBP-041, FKBP-042, FKBP-043, FKBP-044, or FKBP-045 constructs. Jurkat cells were transduced until they were 10-25% positive, as determined on day 5 post-transduction, by using mCherry as a transduction marker. […] The Geometric Mean Fluorescent Intensity (MFI) of GFP expression in mCherry+ cells was plotted and dose response curve fits were performed using Prism Software (San Diego, CA).
FKBP-091 was used as a comparative construct.
FIGS. 22-38 show the results of characterization of FKBP-160-292. […] FKBP-091 and FKBP-117 was used as a comparative control for FKBP-160-FKBP-255. FKBP-195 was used as a comparative control for FKBP-256-FKBP-275. FKBP-117, FPBP-195 and FKBP-251 were used as a comparative control for FKBP-276-FKBP-292.
FKBP mutants were cloned in a manner to make a fusion protein with AcGFP in order to assess FKBP mutant regulation by using AcGFP expression as a readout. […] Further iterative FKBP mutants (FKBP-256-FKBP-292) were constructed from these initial combinatorial mutants to see if we could further improve FKBP DRD properties.

[1] = tacrolimus dose response, Jurkat cells stably transduced (FIG. 4), Table 4
[2] = tacrolimus, Jurkat cells, Table 13

B1: FKBP-062: FKBP13 DRD Q72R, Q84E, A117H, M54A, [−]disulfide; SEQ ID NO: 18 (protein)
chain: HSPIKSRKGDVLHAHYTGKLEDGTEFDSSLPRNQPFVFSLGTGEVIKGWDQGLLGMSEGEKRKLVIPSELGYGERGHPPKIPGGATLVFEVELLKIER
modifications: disulfide removed; Description of sequence: FKBP13-AcGFP-mCherry Fusion; Construct Name: FKBP-062; FKBP13 DRD in Construct : FKBP13 (mutated to match FKBP12 active site - Q72R Q84E A117H) (DRD - M54A [-]disulfide)
With B1 the “DRD function after abrogating the disulfide bonds” value (tacrolimus dose response) was “did not create a significant difference in DRD function” and the Fold Change [1] was 10.4.

B2: FKBP-054: FKBP13 DRD Q72R, Q84E, A117H, D90G, L127K; SEQ ID NO: 10 (protein)
chain: HCPIKSRKGDVLHMHYTGKLEDGTEFDSSLPRNQPFVFSLGTGEVIKGWGQGLLGMCEGEKRKLVIPSELGYGERGHPPKIPGGATKVFEVELLKIER
modifications: Description of sequence: FKBP13-AcGFP-mCherry Fusion; Construct Name: FKBP-054; FKBP13 DRD in Construct : FKBP13 (mutated to match FKBP12 active site - Q72R Q84E A117H) (DRD - D90G L127K)
For B2, the Fold Change [1] was 0.9.

B3: FKBP-057: FKBP13 DRD Q72R, Q84E, A117H, I106A; SEQ ID NO: 13 (protein)
chain: HCPIKSRKGDVLHMHYTGKLEDGTEFDSSLPRNQPFVFSLGTGEVIKGWDQGLLGMCEGEKRKLVAPSELGYGERGHPPKIPGGATLVFEVELLKIER
modifications: Description of sequence: FKBP13-AcGFP-mCherry Fusion; Construct Name: FKBP-057; FKBP13 DRD in Construct : FKBP13 (mutated to match FKBP12 active site - Q72R Q84E A117H) (DRD - I106A)
Work on B3 yielded a Fold Change [1] of 2.7.

B4: FKBP-061: FKBP13 DRD Q72R, Q84E, A117H, L133A; SEQ ID NO: 17 (protein)
chain: HCPIKSRKGDVLHMHYTGKLEDGTEFDSSLPRNQPFVFSLGTGEVIKGWDQGLLGMCEGEKRKLVIPSELGYGERGHPPKIPGGATLVFEVEALKIER
modifications: Description of sequence: FKBP13-AcGFP-mCherry Fusion; Construct Name: FKBP-061; FKBP13 DRD in Construct : FKBP13 (mutated to match FKBP12 active site - Q72R Q84E A117H) (DRD - L133A)
B4 was tested, and the Fold Change [1] was 16.6.

B5: FKBP-060: FKBP13 DRD Q72R, Q84E, A117H, L104A; SEQ ID NO: 16 (protein)
chain: HCPIKSRKGDVLHMHYTGKLEDGTEFDSSLPRNQPFVFSLGTGEVIKGWDQGLLGMCEGEKRKAVIPSELGYGERGHPPKIPGGATLVFEVELLKIER
modifications: Description of sequence: FKBP13-AcGFP-mCherry Fusion; Construct Name: FKBP-060; FKBP13 DRD in Construct : FKBP13 (mutated to match FKBP12 active site - Q72R Q84E A117H) (DRD - L104A)
For B5, the Fold Change [1] was 2.7.

B6: FKBP-053: FKBP13 DRD Q72R, Q84E, A117H, D90G, F66H; SEQ ID NO: 9 (protein)
chain: HCPIKSRKGDVLHMHYTGKLEDGTEHDSSLPRNQPFVFSLGTGEVIKGWGQGLLGMCEGEKRKLVIPSELGYGERGHPPKIPGGATLVFEVELLKIER
modifications: Description of sequence: FKBP13-AcGFP-mCherry Fusion; Construct Name: FKBP-053; FKBP13 DRD in Construct : FKBP13 (mutated to match FKBP12 active site - Q72R Q84E A117H) (DRD - D90G F66H)
For B6, the Fold Change [1] was 1.0.

B7: FKBP-055: FKBP13 DRD Q72R, Q84E, A117H, F78V; SEQ ID NO: 11 (protein)
chain: HCPIKSRKGDVLHMHYTGKLEDGTEFDSSLPRNQPFVVSLGTGEVIKGWDQGLLGMCEGEKRKLVIPSELGYGERGHPPKIPGGATLVFEVELLKIER
modifications: Description of sequence: FKBP13-AcGFP-mCherry Fusion; Construct Name: FKBP-055; FKBP13 DRD in Construct : FKBP13 mutated to match FKBP12 active site - (Q72R Q84E A117H) (DRD - F78V)
With B7 the Fold Change [1] was 9.0.

B8: FKBP-263: based on FKBP-215 removing the M54A mutation (protein)
chain: HCRIKSRKGDVLHMHYTGKLEDGTEFDSSLPRNQPFVFSLGTGGRIKGWDQGLLGMCEGEKRKLVIPSELGYGERGWPPKIPGGATLVFEVELLYIER
modifications: Description of sequence: Construct Name: FKBP-263; Mutation(s): Q72R Q84G A117W V85R DRD P43R K135Y
notes: based on FKBP-215 removing the M54A mutation
For B8, the Basal (FIG. 49, BR1 (Biorep 1)) was 56, the FC (FIG. 49, BR1 (Biorep 1)) was 49.02 and the “At 10 uM” value (FIG. 49, BR1 (Biorep 1)) was 2745. The Basal (FIG. 49, BR2 (Biorep 2)) was 63.3, the FC (FIG. 49, BR2 (Biorep 2)) was 45.75 and the “At 10 uM” value (FIG. 49, BR2 (Biorep 2)) was 2896. For the same molecule, the “basal AcGFP expression” value was “retained the low basal AcGFP expression”, the FC (tacrolimus, FIGS. 31 and 32) was 56 and the “Fold Change” value [2] was 56.

B9: FKBP-056: FKBP13 DRD Q72R, Q84E, A117H, F129K; SEQ ID NO: 12 (protein)
chain: HCPIKSRKGDVLHMHYTGKLEDGTEFDSSLPRNQPFVFSLGTGEVIKGWDQGLLGMCEGEKRKLVIPSELGYGERGHPPKIPGGATLVKEVELLKIER
modifications: Description of sequence: FKBP13-AcGFP-mCherry Fusion; Construct Name: FKBP-056; FKBP13 DRD in Construct : FKBP13 (mutated to match FKBP12 active site - Q72R Q84E A117H) (DRD - F129K)
B9 showed a Fold Change [1] of 1.0.

B10: FKBP-063: FKBP13 DRD Q72R, Q84E, A117H, M54A, C42S; SEQ ID NO: 19 (protein)
chain: HSPIKSRKGDVLHAHYTGKLEDGTEFDSSLPRNQPFVFSLGTGEVIKGWDQGLLGMCEGEKRKLVIPSELGYGERGHPPKIPGGATLVFEVELLKIER
modifications: Description of sequence: FKBP13-AcGFP-mCherry Fusion; Construct Name: FKBP-063; FKBP13 DRD in Construct : FKBP13 (mutated to match FKBP12 active site - Q72R Q84E A117H) (DRD - M54A C42S )
In the case of B10, the “DRD function after abrogating the disulfide bonds” value (tacrolimus dose response) is reported as “did not create a significant difference in DRD function” and the Fold Change [1] is reported as 7.3.

B11: FKBP-058: FKBP13 DRD Q72R, Q84E, A117H, L52A; SEQ ID NO: 14 (protein)
chain: HCPIKSRKGDVAHMHYTGKLEDGTEFDSSLPRNQPFVFSLGTGEVIKGWDQGLLGMCEGEKRKLVIPSELGYGERGHPPKIPGGATLVFEVELLKIER
modifications: Description of sequence: FKBP13-AcGFP-mCherry Fusion; Construct Name: FKBP-058; FKBP13 DRD in Construct : FKBP13 (mutated to match FKBP12 active site - Q72R Q84E A117H) (DRD - L52A)
B11 gave a Fold Change [1] of 8.1.

B12: FKBP-059: FKBP13 DRD Q72R, Q84E, A117H, L93A; SEQ ID NO: 15 (protein)
chain: HCPIKSRKGDVLHMHYTGKLEDGTEFDSSLPRNQPFVFSLGTGEVIKGWDQGALGMCEGEKRKLVIPSELGYGERGHPPKIPGGATLVFEVELLKIER
modifications: Description of sequence: FKBP13-AcGFP-mCherry Fusion; Construct Name: FKBP-059; FKBP13 DRD in Construct : FKBP13 (mutated to match FKBP12 active site - Q72R Q84E A117H) (DRD - L93A)
B12 was tested, and the Fold Change [1] was 27.3 and the “Fold Change” value (tacrolimus dose response, Jurkat cells stably transduced (FIG. 10), Table 5) was 31.085.

B13: FKBP-272: constructed from FKBP-195 by changing the K135Y mutation to K135L (protein)
chain: HCPIKSRKGDVLHMHYTGKLEDGTEFDSSLPRNQPFVFSLGTGERIKGWDQGLLGMCEGEKRKLVIPSELGYGERGWPPKIPGGATLVFEVELLLIER
modifications: Description of sequence: Construct Name: FKBP-272; Mutation(s): Q72R Q84E A117W V85R DRD K135L
notes: constructed from FKBP-195 by changing the K135Y mutation to K135L
B13 showed a Basal (FIG. 39) of 71.5, an FC (FIG. 39) of 85 and a Peak (FIG. 39) of 5857. For the same molecule, the Basal (FIG. 50) was 55.6, the FC (FIG. 50) was 105.86 and the “At 10 uM” value (FIG. 50) was 5886. The “basal AcGFP expression” value was “lower basal AcGFP expression” and the “Fold Change” value [2] was 105.86.
